The numbers were not newly measured in PMC4569521, which cites them from elsewhere.

Data set [1] deals with MuA recognition peptides (Escherichia phage Mu) (UniProt P07636).
Data set [2] deals with MuA tetramer (Escherichia phage Mu) (UniProt P07636).
Chain of MuA tetramer (Escherichia phage Mu) (P07636 whole entry): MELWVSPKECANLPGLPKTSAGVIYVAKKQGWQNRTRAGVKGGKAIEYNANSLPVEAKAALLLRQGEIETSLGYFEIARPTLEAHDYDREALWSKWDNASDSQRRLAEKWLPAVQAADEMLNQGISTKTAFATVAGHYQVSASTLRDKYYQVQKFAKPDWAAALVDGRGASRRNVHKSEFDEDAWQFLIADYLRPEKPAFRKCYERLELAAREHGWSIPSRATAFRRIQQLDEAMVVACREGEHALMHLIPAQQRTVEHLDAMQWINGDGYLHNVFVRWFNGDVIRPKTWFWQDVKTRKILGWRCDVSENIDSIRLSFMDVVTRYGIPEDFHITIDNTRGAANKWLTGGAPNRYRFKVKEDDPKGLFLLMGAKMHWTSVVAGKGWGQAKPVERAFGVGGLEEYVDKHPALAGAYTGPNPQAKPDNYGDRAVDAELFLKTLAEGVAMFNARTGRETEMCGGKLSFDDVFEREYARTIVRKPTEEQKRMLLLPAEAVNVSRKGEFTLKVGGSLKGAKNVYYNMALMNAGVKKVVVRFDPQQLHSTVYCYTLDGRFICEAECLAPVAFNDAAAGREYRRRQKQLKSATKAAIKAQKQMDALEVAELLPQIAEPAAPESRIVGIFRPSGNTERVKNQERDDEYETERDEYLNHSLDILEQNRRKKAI

Chain of ClpX (P0A6H1 2-424): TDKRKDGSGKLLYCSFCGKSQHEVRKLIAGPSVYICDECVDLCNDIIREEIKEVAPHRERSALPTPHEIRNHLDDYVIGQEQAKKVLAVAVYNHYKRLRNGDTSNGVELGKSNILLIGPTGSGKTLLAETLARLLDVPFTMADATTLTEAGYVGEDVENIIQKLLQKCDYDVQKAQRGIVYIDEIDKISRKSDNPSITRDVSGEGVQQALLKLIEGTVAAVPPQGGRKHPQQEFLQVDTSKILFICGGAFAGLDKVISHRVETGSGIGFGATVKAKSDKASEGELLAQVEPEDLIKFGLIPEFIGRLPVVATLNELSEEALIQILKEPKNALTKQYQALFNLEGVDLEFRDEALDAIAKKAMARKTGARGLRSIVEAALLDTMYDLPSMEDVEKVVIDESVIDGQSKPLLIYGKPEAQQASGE
Chain of MuA recognition peptides (Escherichia phage Mu) (P07636 whole entry, looked up): as the sequence (P07636 whole entry) above

In general, Kd refers to the equilibrium constant for the complex coming apart. As to ClpX (from UniProt P0A6H1), the equilibrium dissociation constant (Kd) in data set [1] is more than 70 µM; in data set [2], 1000 nM.
